Experimental data reported in patent US10548981B2, “Silk-based drug delivery system” (TRUSTEES OF TUFTS COLLEGE, priority 2004, dated 2020).
Entries after “also recorded” stand apart in the source; their conditions may differ.

What was measured:
[1] = Protein activity after water vapor treatment of drug loaded films; assay type: physicochemical; settings: water vapor treatment of drug loaded films at 25° C. over a saturated Na2SO4 solution for 24 hours
Experimental: Conclusion: Drug release from silk films was a function of the drugs molecular weight and film treatment with methanol. […] This decrease of activity was correlated to methanol sensitivity of Lys (and to a lesser extent for HRP). Alternatively, crystallinity can be induced by water vapor treatment (data not shown) of drug loaded films at 25° C. over a saturated Na2SO4 solution for 24 hours.

[2] = Release of HRP and Lysozyme from silk films, analyzed by biological potency tests (FIG. 5); assay type: physicochemical; settings: for release / released protein-drug activity: methanol treated films
[3] = loaded films exposed to methanol

**Q.** What does the source list for Lysozyme?
**A.** protein activity [1]: No loss of protein activity; release / released protein-drug activity ([2]; listed as Lys): did not release substantial amounts over time; also recorded: substantially less protein-drug activity

**Q.** With horseradish peroxidase [HRP] as the substance, how does the protein activity [1] read?
**A.** No loss of protein activity

**Q.** And the continuous release until [2, 3]?
**A.** 23 days

**Q.** What about the initial burst [2, 3] of the same substance?
**A.** No initial burst

**Q.** And the start of release [2, 3]?
**A.** 5 days

**Q.** What about the “release / released protein-drug activity” value [2] of the same substance?
**A.** substantially less protein-drug activity

**Q.** What about the “initial burst, of the total loading” value ([2]; native silk films) of the same substance?
**A.** 5%

**Q.** What about the lag phase ([2]; native silk films) of the same substance?
**A.** two
